Data from US20180371107A1 (published 2018).

B1: anti-NSP4 antibody 5-1 (antibody, V domains shown)
VH: EVQLVESGGGLVQPGGSLRLSCAASGFTFSGSGIHWVRQAPGKGLEWVAWISPTGGNTYYADSVKGRFTISADTSKNTAYLQMNSLRAEDTAVYYCAKSLFHNVAFDYWGQGTLVTVSS
VL: DIQMTQSPSSLSASVGDRVTITCRASQDVSTAVAWYQQKPGKAPKLLIYSASFLYSGVPSRFSGSGSGTDFTLTISSLQPEDFATYYCQQSYTTPPTFGQGTKVEIKR
notes: also called Ab 5-1; Ab5-1
B2: anti-NSP4 antibody 5-3 (antibody, human IgG1, V domains shown)
VH: EVQLVESGGGLVQPGGSLRLSCAASGFTFSGNDISWVRQAPGKGLEWVAGISPYGGSTYYADSVKGRFTISADTSKNTAYLQMNSLRAEDTAVYYCARRVSFYSRHAGMDYWGQGTLVTVSS
VL: DIQMTQSPSSLSASVGDRVTITCRASQDVSTAVAWYQQKPGKAPKLLIYSASFLYSGVPSRFSGSGSGTDFTLTISSLQPEDFATYYCQQSYTTPPTFGQGTKVEIKR
B3: anti-NSP4 antibody 5-4 (antibody, human IgG1, V domains shown)
VH: EVQLVESGGGLVQPGGSLRLSCAASGFTFTSYAISWVRQAPGKGLEWVAGISPSNGYTNYADSVKGRFTISADTSKNTAYLQMNSLRAEDTAVYYCARAGRWTHSDIDYWGQGTLVTVSS
VL: DIQMTQSPSSLSASVGDRVTITCRASQDVSTAVAWYQQKPGKAPKLLIYSASFLYSGVPSRFSGSGSGTDFTLTISSLQPEDFATYYCQQSYTTPPTFGQGTKVEIKR
notes: also called Ab 5-4
B4: anti-NSP4 antibody 3-2 (antibody, V domains shown)
VH: EVQLVESGGGLVQPGGSLRLSCAASGFTFSDYSISWVRQAPGKGLEWVGEINPAGGATYYADSVKGRFTISADTSKNTAYLQMNSLRAEDTAVYYCARGDFPFWSDAYYVMDYWGQGTLVTVSS
VL: DIQMTQSPSSLSASVGDRVTITCRASQDVSTAVAWYQQKPGKAPKLLIYSASFLYSGVPSRFSGSGSGTDFTLTISSLQPEDFATYYCQQSYTTPPTFGQGTKVEIKR
notes: also called Ab 3-2
B5: anti-NSP4 antibody 3-5 (antibody, V domains shown)
VH: EVQLVESGGGLVQPGGSLRLSCAASGFTFSDNDISWVRQAPGKGLEWVGSISPDNGDTNYADSVKGRFTISADTSKNTAYLQMNSLRAEDTAVYYCARDDVPAVFTSAMDYWGQGTLVTVSS
VL: DIQMTQSPSSLSASVGDRVTITCRASQDVSTAVAWYQQKPGKAPKLLIYSASFLYSGVPSRFSGSGSGTDFTLTISSLQPEDFATYYCQQSYTTPPTFGQGTKVEIKR
notes: also called Ab 3-5; Ab35

Experiments:
[1] = target: T1, mouse active NSP4 (mA-NSP4) (mouse, UniProt Q14B24 40-284); assay: competition phage ELISA (phage IC50): phage clone preincubated with soluble mA-NSP4, then on NSP4-coated wells
T1 construct: mature; Made from mZ by enteropeptidase cleavage; also called mature form of mouse NSP4
T1 sequence (looked up): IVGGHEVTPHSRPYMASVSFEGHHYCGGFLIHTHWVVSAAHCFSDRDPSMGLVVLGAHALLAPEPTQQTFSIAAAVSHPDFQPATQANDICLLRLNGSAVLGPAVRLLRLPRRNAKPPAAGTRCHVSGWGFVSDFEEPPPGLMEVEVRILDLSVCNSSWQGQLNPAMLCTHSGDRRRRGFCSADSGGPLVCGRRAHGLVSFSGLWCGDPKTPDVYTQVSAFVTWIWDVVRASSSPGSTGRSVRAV
Procedure: Phage at sub-saturating concentrations were first incubated with increasing concentrations of target NSP4 antigen (either hZ, hA, mZ, or mA) for 1 to 2 hour(s), and then transferred to wells coated with the same NSP4 antigen to capture the unbound phage.
Briefly, 2 ug/ml of NSP4 (hZ, hA, mZ, or mA variants) was coated on wells overnight at 4° C. in PBS supplemented with 0.5% BSA. Each individual phage clone (at 0.01 OD/ml) was purified and incubated with increasing concentrations of soluble NSP4 protein for 2 h at room temperature before being placed into wells coated with immobilized NSP4 protein for 15 min at room temperature. The wells were then washed with PBS supplemented with 0.05% Tween-20 for 10 times and developed using anti-M13 phage antibody conjugated with HRP (New England Biolabs). […] The soluble phage:antigen complex, with higher likelihood to be high-affinity phage clones, would thus be removed through successive washing steps, resulting in lower A450 signal at any given concentration of soluble antigen. Consequently, higher affinity phage clones would have a lower phage IC50 value, with a concomitant leftward-shift in the binding curves, compared to lower affinity phage clones.

[2] = target: T2, mouse zymogen NSP4 (mZ-NSP4) (mouse), Q14B24; assay: BLI; no affinity; settings: chains VH:VL; remark: other sources report otherwise
T2 chain: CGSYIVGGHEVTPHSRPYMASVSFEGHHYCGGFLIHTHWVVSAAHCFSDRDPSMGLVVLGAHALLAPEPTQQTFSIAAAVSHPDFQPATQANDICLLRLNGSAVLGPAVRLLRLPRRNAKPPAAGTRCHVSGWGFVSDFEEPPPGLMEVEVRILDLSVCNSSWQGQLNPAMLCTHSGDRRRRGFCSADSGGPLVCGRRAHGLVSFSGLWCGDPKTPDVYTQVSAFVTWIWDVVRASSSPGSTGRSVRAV

[3] = target: T3, mouse NSP4 (mNSP4), form not stated in Example 6 (mouse, UniProt Q14B24 40-284, limits assumed); assay: phage competition binding assay (phage IC50), soluble mNSP4 competitor
T3 construct: also called recombinant mouse NSP4; purified mouse NSP4
T3 sequence (looked up): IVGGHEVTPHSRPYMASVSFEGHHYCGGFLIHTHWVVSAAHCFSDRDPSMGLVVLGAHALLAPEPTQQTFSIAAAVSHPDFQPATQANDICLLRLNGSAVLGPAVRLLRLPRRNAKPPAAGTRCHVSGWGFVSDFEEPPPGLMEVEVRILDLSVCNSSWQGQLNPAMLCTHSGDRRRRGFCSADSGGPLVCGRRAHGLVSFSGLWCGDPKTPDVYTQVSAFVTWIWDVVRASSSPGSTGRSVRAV

[4] = target: T4, mouse zymogen NSP4 (mZ-NSP4) (mouse, UniProt Q14B24 36-284); assay: competition phage ELISA (phage IC50): phage clone preincubated with soluble mZ-NSP4, then on NSP4-coated wells
T4 construct: Expressed in CHO cells; also called precursor form of mouse NSP4; not shown: N-terminal FLAG tag removable by enteropeptidase (cleavage after Asp-Asp-Asp-Asp-Lys)
T4 sequence (looked up): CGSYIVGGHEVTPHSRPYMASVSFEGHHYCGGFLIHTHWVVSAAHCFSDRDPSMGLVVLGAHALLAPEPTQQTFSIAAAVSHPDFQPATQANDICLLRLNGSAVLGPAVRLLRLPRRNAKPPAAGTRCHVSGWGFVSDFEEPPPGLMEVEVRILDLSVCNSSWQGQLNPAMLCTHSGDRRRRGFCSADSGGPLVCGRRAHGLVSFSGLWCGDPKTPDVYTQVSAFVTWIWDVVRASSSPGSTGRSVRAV

[5] = target: T5, human NSP4 (hNSP4), form not stated in Example 6 (human, UniProt Q6UWY2 34-283, limits assumed); assay: phage competition binding assay (phage IC50), soluble hNSP4 competitor
T5 sequence (looked up): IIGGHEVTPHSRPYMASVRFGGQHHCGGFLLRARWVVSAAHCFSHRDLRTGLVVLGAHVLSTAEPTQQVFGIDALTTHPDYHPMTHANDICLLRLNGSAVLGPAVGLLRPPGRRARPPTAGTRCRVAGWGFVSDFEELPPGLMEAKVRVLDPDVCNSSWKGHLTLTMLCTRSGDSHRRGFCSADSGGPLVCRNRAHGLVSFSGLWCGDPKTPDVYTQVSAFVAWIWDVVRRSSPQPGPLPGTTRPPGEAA

Binder | IC50 [1] [nM] | Kd [2] [nM] | IC50 [3] [nM] | IC50 [4] [nM] | IC50 [5] [nM]
B1 | 9.93 | > 1000 | 18.7 | – | –
B2 | 319 | > 1000 | – | – | –
B3 | 60.5 | > 1000 | – | – | –
B4 | – | – | – | 0.15 | –
B5 | – | – | 0.131 | 0.18 | 32.8
